Target: T1, OB-R (Homo sapiens, UniProt P48357)
T1 construct: After confirming via Western that the primary EEC and ESC and endometrial cell lines utilized herein had OB-R; endogenous in cells; host or cells: primary human EEC and ESC; Ishikawa (ECACC 9832301) and HES cell lines
T1 sequence (P48357 22-1165): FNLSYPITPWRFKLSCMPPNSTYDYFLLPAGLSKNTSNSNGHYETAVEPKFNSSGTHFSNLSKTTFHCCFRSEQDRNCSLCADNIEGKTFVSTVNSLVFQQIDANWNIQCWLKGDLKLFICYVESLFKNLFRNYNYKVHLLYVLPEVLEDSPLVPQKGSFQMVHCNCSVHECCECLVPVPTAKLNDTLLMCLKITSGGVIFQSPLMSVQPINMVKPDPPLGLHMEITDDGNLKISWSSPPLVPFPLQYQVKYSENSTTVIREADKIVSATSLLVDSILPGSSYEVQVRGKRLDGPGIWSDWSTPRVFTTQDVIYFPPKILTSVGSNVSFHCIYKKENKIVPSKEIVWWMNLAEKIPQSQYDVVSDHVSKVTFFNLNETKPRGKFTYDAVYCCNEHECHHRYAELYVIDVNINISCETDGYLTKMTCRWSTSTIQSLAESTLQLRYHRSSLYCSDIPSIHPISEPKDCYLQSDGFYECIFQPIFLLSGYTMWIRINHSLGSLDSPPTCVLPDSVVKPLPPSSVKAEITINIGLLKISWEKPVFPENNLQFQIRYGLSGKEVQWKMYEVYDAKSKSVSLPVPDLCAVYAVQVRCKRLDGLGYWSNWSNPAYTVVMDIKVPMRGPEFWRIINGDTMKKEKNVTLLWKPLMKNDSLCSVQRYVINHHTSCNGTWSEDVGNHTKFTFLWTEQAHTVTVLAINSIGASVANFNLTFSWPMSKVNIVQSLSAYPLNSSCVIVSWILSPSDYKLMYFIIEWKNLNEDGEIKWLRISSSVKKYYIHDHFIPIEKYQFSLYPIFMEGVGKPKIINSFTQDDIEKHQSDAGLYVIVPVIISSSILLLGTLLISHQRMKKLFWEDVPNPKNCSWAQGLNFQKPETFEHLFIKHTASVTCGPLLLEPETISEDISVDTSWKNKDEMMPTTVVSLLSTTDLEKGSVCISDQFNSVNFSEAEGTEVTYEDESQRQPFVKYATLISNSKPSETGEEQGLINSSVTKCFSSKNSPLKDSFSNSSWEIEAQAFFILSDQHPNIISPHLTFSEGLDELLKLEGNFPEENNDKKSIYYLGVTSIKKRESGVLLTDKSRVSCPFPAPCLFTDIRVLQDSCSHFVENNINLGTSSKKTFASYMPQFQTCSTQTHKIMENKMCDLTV
Assay: p-STAT3 levels in human endometrial cells (Western blot)
Format: cell-based
Details: for effect on leptin-induced increase of p-STAT3 levels: peptide 300 nM
Protocol: Primary human endometrial cells (ESC and EEC) were cultured for 5-9 days in DMEM-F12 medium containing 5% fetal bovine serum (FBS), 5 μg/ml insulin, 1% amphopthericin B, 100 μg/ml streptomycin and 100 U/ml penicillin until they were 80% confluent. Two types of endometrial epithelial cell lines, HES (originally derived from a benign proliferative endometrium) and Ishikawa (human endometrial epithelial adenocarcinoma, ECACC 9832301, Wiltshire, England) were cultured under the same conditions described above. The cells were washed twice with 100 mM phosphate saline buffer (PBS), pH 7.2 and cultured for additional 2 days in the same medium but without FBS (basal medium). Cells were washed as described before and cultured in basal medium containing leptin (0, 3, 10 or 62 nM) or IL-1β (0.6, 3 and 10 nM).
The anti-OB-R antibody (10 and 20 μg/ml) and LPA-2, a specific inhibitor of OB-R (3, 120, 300 nM or 30 μM) were used to assess whether leptin-induced effects were regulated primarily by the OB-R. Non-specific species-matched IgGs to the OB-R antibody and a scrambled version of LPA-2 (LPA-2Sc) served as negative controls (Gonzalez and Leavis, Endocrine 21: 185-195 (2003)). Inhibitors of IL-1R were used (monoclonal antibody anti-IL-1R tl and IL-1Ra) to assess whether leptin activated IL-1 induced signaling pathways or just activated similar components responsible for LIF/LIF-R expression. Treatment with the cytokine, inhibitor or the two combined was implemented for 5, 15, 30 and 60 min, and 24 and 48 h. The cells were prepared for Western blot analysis. The conditioned media was collected, lyophilized and stored at −80° C. until analysis for LIF, IL-1β and IL-1Ra by ELISA could be performed. Duplicate wells were run for each treatment and the experiments repeated at least three times with different cell preparations.
Endometrial cells were washed with ice-cold PBS and lysed by homogenization on ice with lysis buffer A [[…] Tris, pH 7.4, containing 137 nM NaCl, 2 mM EDTA, 10% glycerol, 50 mM β-glycerophosphate, 1% Nonidet P-40 and a mixture of proteases and phosphatase inhibitors composed of 100 μM antipain, 0.1 mg/ml trypsin inhibitor, protease inhibitor cocktail 1:50 (Sigma), 50 nM NaF, 2 mM phenyl-methylsulfonyl fluoride, and 2 mM sodium orthovanadate]. Cellular lysates were centrifuged at 2400 g at 4° C. for 10 min. For nuclear lysates the cells were scraped from the culture plates and homogenized with lysis buffer B (10 nM Tris, pH 7.4, 0.25 M sucrose, 0.1 mM EDTA containing the same mixture of protease and phosphatase inhibitors as buffer A). Protein concentrations were determined using the Bradford protein assay (BioRad Laboratories Inc., Hercules, Calif.).
30 μg of protein from nuclear or cellular lysates were incubated in ependorf tubes containing 0.5 μg of primary antibodies (anti-LIF-R, OB-R, STAT3 and p-STAT3 diluted in buffer A) for 2 h at 4° C. under constant stirring. The immuno-complexes were incubated with 20 μl of Protein G-Agarose (Amersham Pharmacia Biotech) diluted 1:1 with buffer A for a 2 additional hours under constant stirring. The beads were centrifuged for 1 min at 1000 g and washed with buffer A containing 0.5 M NaCl followed by a final wash with buffer A.
Cellular lysates and their immunoprecipitates containing 10-30 μg of protein plus Laemmli buffer (1:1) were incubated at 95° C. for 5 min. […]

Row | p-STAT3 level compared to non-treated control cells (Ishikawa cells, LPA-2 treatment) | effect on leptin-induced increase of p-STAT3 levels (Ishikawa cells, leptin 62 nM) | p-STAT3 levels over non-treated controls after leptin (Ishikawa cells, leptin 62 nM) | p-STAT3 levels after leptin (primary EEC, leptin 10 and 62 nM, 5 min, nuclear extracts) | Substance
1 | decrease level of p-STAT3 | inhibited the leptin-induced increase |  |  | SRNVIQISNDLENLRDLLHVLAFSKS [LPA-2, 26 amino acid peptide, residues 70-95 of helix III of the human leptin molecule; leptin peptide antagonist]
2 |  | had no effect |  |  | VAEVLNRSDLIQRISFSLDLNNSKLH [LPA-2Sc, scrambled version of LPA-2, negative control, reference compound]
3 |  |  | increased the levels of p-STAT3 | increase in the levels of p-STAT3 | leptin: human recombinant leptin (R&D Systems), OB-R ligand used as stimulus

— patent US8058228B2, “Leptin peptide antagonists” (Boston Biomedical Research Institute, priority 2004, dated 2011)
